Measurements taken from patent publication US20180030151A1 (MOGAM INSTITUTE FOR BIOMEDICAL RESEARCH, published 2018).
Like-named read-outs stand apart in the source and are kept apart here.

How the values were obtained:
Assay in all cases: cell-based or functional assay
[1] = biological target: T1, recombinant human TFPI (tissue factor pathway inhibitor) (human, UniProt P10646 29-304)
[2] = biological target: T1, recombinant human TFPI (tissue factor …); remark: listed apart in the source
[3] = biological target: T1, recombinant human TFPI (tissue factor …); remark: listed apart in the source
[4] = biological target: T1, recombinant human TFPI (tissue factor …); remark: listed apart in the source
[5] = biological target: T1, recombinant human TFPI (tissue factor …); remark: listed apart in the source
[6] = biological target: T1, recombinant human TFPI (tissue factor …); remark: listed apart in the source
[7] = biological target: T1, recombinant human TFPI (tissue factor …); remark: listed apart in the source

A405, TF/FVIIa/FX complex assay, Ab 1.56 nM [1]: 0.134
A405, TF/FVIIa/FX complex assay, Ab 3.13 nM [1]: 0.147
A405, TF/FVIIa/FX complex assay, Ab 6.25 nM [1]: 0.179
A405, TF/FVIIa/FX complex assay, Ab 12.5 nM [1]: 0.242
A405, TF/FVIIa/FX complex assay, Ab 25 nM [1]: 0.873
A405, TF/FVIIa/FX complex assay, Ab 50 nM [1]: 0.945
A405, TF/FVIIa/FX complex assay, Ab 100 nM [1]: 0.949
% of Normalized, TF/FVIIa/FX complex assay, Ab 1.56 nM [2]: 15.2%
% of Normalized, TF/FVIIa/FX complex assay, Ab 3.13 nM [2]: 16.8%
% of Normalized, TF/FVIIa/FX complex assay, Ab 6.25 nM [2]: 19.5%
% of Normalized, TF/FVIIa/FX complex assay, Ab 12.5 nM [2]: 26.3%
% of Normalized, TF/FVIIa/FX complex assay, Ab 25 nM [2]: 92.2%
% of Normalized, TF/FVIIa/FX complex assay, Ab 50 nM [2]: 95.1%
% of Normalized, TF/FVIIa/FX complex assay, Ab 100 nM [2]: 99%
A405, TF/FVIIa/FX complex assay, Ab 1.56 nM [3]: 0.16
A405, TF/FVIIa/FX complex assay, Ab 3.13 nM [3]: 0.158
A405, TF/FVIIa/FX complex assay, Ab 6.25 nM [3]: 0.183
A405, TF/FVIIa/FX complex assay, Ab 12.5 nM [3]: 0.253
A405, TF/FVIIa/FX complex assay, Ab 25 nM [3]: 0.894
A405, TF/FVIIa/FX complex assay, Ab 50 nM [3]: 0.938
A405, TF/FVIIa/FX complex assay, Ab 100 nM [3]: 0.931
% of Normalized, TF/FVIIa/FX complex assay, Ab 1.56 nM [4]: 17.5%
% of Normalized, TF/FVIIa/FX complex assay, Ab 3.13 nM [4]: 17.2%
% of Normalized, TF/FVIIa/FX complex assay, Ab 6.25 nM [4]: 20%
% of Normalized, TF/FVIIa/FX complex assay, Ab 12.5 nM [4]: 27.7%
% of Normalized, TF/FVIIa/FX complex assay, Ab 25 nM [4]: 97.7%
% of Normalized, TF/FVIIa/FX complex assay, Ab 50 nM [4]: 102%
% of Normalized, TF/FVIIa/FX complex assay, Ab 100 nM [4]: 102%
% of Normalized, TF/FVIIa/FX complex assay (FX 5 nM), Ab 1.56 nM [5]: 5.5%
% of Normalized, TF/FVIIa/FX complex assay (FX 5 nM), Ab 3.13 nM [5]: 6%
% of Normalized, TF/FVIIa/FX complex assay (FX 5 nM), Ab 6.25 nM [5]: 6.2%
% of Normalized, TF/FVIIa/FX complex assay (FX 5 nM), Ab 12.5 nM [5]: 8.9%
% of Normalized, TF/FVIIa/FX complex assay (FX 5 nM), Ab 25 nM [5]: 19%
% of Normalized, TF/FVIIa/FX complex assay (FX 5 nM), Ab 50 nM [5]: 62.9%
% of Normalized, TF/FVIIa/FX complex assay (FX 5 nM), Ab 100 nM [5]: 92%
% of Normalized, TF/FVIIa/FX complex assay, Ab 1.56 nM [6]: 5.2%
% of Normalized, TF/FVIIa/FX complex assay, Ab 3.13 nM [6]: 5.5%
% of Normalized, TF/FVIIa/FX complex assay, Ab 6.25 nM [6]: 5.8%
% of Normalized, TF/FVIIa/FX complex assay, Ab 12.5 nM [6]: 8.7%
% of Normalized, TF/FVIIa/FX complex assay, Ab 25 nM [6]: 32.1%
% of Normalized, TF/FVIIa/FX complex assay, Ab 50 nM [6]: 70.7%
% of Normalized, TF/FVIIa/FX complex assay, Ab 100 nM [6]: 95.5%
FXa assay % of FXa alone, 2.5 nM Ab, 10 nM TFPI [7]: 6.9%
FXa assay % of FXa alone, 5 nM Ab, 10 nM TFPI [7]: 20%
FXa assay % of FXa alone, 10 nM Ab, 10 nM TFPI [7]: 45.4%
FXa assay % of FXa alone, 20 nM Ab, 10 nM TFPI [7]: 72.9%
FXa assay OD, 2.5 nM Ab, 10 nM TFPI [7]: 0.057
FXa assay OD, 5 nM Ab, 10 nM TFPI [7]: 0.165
FXa assay OD, 10 nM Ab, 10 nM TFPI [7]: 0.375
FXa assay OD, 20 nM Ab, 10 nM TFPI [7]: 0.603
B1: clone T417 (antibody, V domains shown)
VH: EVHLVESGGDLVKPGGSLKLSCAASGFTFSSYAMSWVRQTPDKRLEWVATITTGGSYTYYPDSVKGRFTISRDNAKNTLYLQMSSLKSEDTAMYYCARQDGNFLMDYWGQGTTVTVSS
VL: not shown
notes: also called T417 chimeric antibody
